Substitutions are numbered along the chain they refer to. In names and notes the source's numbering stands.
T1: cynomolgus monkey FcγRIIa1 extracellular domain, C-terminal His-tag (cynomolgus monkey)
T1 construct: also called cyno FcγRIIa1; cynoFcgRIIa1
T1 chain: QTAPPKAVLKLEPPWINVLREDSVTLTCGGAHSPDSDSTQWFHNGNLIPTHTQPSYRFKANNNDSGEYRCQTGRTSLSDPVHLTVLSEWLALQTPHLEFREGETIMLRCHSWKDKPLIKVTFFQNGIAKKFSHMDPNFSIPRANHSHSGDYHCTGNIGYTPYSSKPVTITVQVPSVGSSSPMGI

T2: cynomolgus monkey FcγRIIa2 extracellular domain, C-terminal His-tag (cynomolgus monkey)
T2 construct: also called cyno FcγRIIa2; cynoFcgRIIa2
T2 chain: T1 chain with P95T, T121A, I127K, A128S, K130N, D135N, R142Q

T3: cynomolgus monkey FcγRIIa3 extracellular domain, C-terminal His-tag (cynomolgus monkey)
T3 construct: also called cyno FcγRIIa3; cynoFcgRIIa3
T3 chain: T1 chain with P95T, T121A, A128S, H133P, D135N

T4: cynomolgus monkey FcγRIIb extracellular domain, C-terminal His-tag (cynomolgus monkey)
T4 construct: also called cyno FcγRIIb; cynoFcγRIIb
T4 chain: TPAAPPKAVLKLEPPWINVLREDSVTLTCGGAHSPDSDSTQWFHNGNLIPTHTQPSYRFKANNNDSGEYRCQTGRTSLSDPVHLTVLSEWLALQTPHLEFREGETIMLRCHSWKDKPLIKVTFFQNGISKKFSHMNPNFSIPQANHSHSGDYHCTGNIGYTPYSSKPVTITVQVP

T5: cynomolgus monkey FcγRIIIaS extracellular domain, C-terminal His-tag (cynomolgus monkey, UniProt Q8SPW2 21-206 at identity 1.00))
T5 construct: also called cyno FcγRIIIaS; cynoFcγRIIIaS
T5 chain: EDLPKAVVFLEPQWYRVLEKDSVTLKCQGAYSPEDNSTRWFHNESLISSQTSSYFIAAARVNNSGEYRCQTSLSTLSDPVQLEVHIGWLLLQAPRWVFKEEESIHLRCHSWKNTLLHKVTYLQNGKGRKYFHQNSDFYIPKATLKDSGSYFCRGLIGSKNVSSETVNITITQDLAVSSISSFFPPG

T6: human FcγRIIaH extracellular domain, C-terminal His-tag (human, UniProt P12318 34-217)
T6 construct: also called human FcγRIIa (type H); FcgRIIaH
T6 sequence: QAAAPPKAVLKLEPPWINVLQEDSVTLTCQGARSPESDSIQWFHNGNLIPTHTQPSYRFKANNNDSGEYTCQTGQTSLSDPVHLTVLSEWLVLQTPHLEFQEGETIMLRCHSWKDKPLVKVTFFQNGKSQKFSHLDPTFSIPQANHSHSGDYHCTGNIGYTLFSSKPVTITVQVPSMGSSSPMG

T7: human FcγRIIaR extracellular domain, C-terminal His-tag (human, UniProt P12318 34-217)
T7 construct: also called human FcγRIIa (type R); FcgRIIaR
T7 chain: T6 sequence with H134R

T8: human FcγRIIb extracellular domain, C-terminal His-tag (human, UniProt P31994 43-217)
T8 construct: also called human FcgRIIb; FcgRIIb
T8 sequence: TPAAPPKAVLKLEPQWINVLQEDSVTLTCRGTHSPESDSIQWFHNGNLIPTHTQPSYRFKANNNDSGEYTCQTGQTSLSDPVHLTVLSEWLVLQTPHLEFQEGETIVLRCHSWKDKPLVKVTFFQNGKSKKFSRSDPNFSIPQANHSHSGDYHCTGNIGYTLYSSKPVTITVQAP

T9: human FcγRIIaH extracellular domain, C-terminal His-tag (human, UniProt P12318 34-217)
T9 construct: also called human FcγRIIa (type H); FcgRIIaH
T9 sequence: T6 sequence

T10: human FcγRIIaR extracellular domain, C-terminal His-tag (human, UniProt P12318 34-217)
T10 construct: also called human FcγRIIa (type R); FcgRIIaR
T10 chain: T6 sequence with H134R

T11: human FcγRIIb extracellular domain, C-terminal His-tag (human, UniProt P31994 43-217)
T11 construct: also called FcgRIIb (human)
T11 sequence: T8 sequence

B1: M103205H795-MY198/M103202L889-SK1 (antibody, human IgG1, kappa)
heavy: QVTLKESGPVLVKPTETLTLTCTVSGIDLSHDDISWVRQAPGKGLEWVGIISYAGSTYYASWAKGRLTISKDTSKNQVVLTMTNMDPVDTATYYCARGVPAYSHGGDLWGQGTLVTVSSASTKGPSVFPLAPSSKSTSGGTAALGCLVKDYFPEPVTVSWNSGALTSGVHTFPAVLQSSGLYSLSSVVTVPSSSLGTQTYICNVNHKPSNTKVDKKVEPKSCDKTHTCPPCPAPELLNGPVVFLFPPKPKDTLMISRTPEVTCVVVDVSDEDPEVKFNWYVDGVEVHNAKTKPREEQYNSTYRVVSVLTVLHQDWLNGKEYKCKVSNKALPKPIEKTISKAKGQPREPQVYTLPPSREEMTKNQVSLTCLVKGFYPSDIAVEWESNGQPENNYKTTPMVLDSDGSFFLYSKLTVDKSRWQQGNVFSCSVMHEALHNHYTQKSLSLSP
light: DIVMTQSPATLSLSPGERATLSCTSSQSVYHANWLSWFQQKPGQPPKLLIYWASTLAYGVPSRFSGSGSGTDFTLTISSLQPEDAATYYCAGGYGGGRYAFGQGTKVEIKRTVAAPSVFIFPPSDEQLKSGTASVVCLLNNFYPREAKVQWKVDNALQSGNSQESVTEQDSKDSTYSLSSTLTLSKADYEKHKVYACEVTHQGLSSPVTKSFNRGEC
notes: Substitutions introduced into M103205H795-SG1; expressed with M103202L889-SK1 as light chain
B2: M103205H795-MY201/M103202L889-SK1 (antibody, human IgG1, kappa)
heavy: B1 heavy with V241S, M398P
light: B1 light
notes: also called MS1032LO06-MY201
B3: M103205H795-MY205/M103202L889-SK1 (antibody, human IgG1, kappa)
heavy: B1 heavy with V241S, Q297L, M398P
light: B1 light
notes: also called MS1032LO06-MY205
B4: M103205H795-MY204/M103202L889-SK1 (antibody, human IgG1, kappa)
heavy: B1 heavy with D270E, Q297L, M398P
light: B1 light
notes: as for B1
B5: M103205H795-MY202/M103202L889-SK1 (antibody, human IgG1, kappa)
heavy: B1 heavy with M398P
light: B1 light
notes: as for B1
B6: M103205H795-MY200/M103202L889-SK1 (antibody, human IgG1, kappa)
heavy: B1 heavy with D270E, M398P
light: B1 light
notes: as for B1
B7: M103205H795-MY199/M103202L889-SK1 (antibody, human IgG1, kappa)
heavy: B1 heavy with V241S, D270E, M398P
light: B1 light
notes: as for B1
B8: GpH7-B3 variant S267A/GpL16-k0 (antibody, human IgG1, kappa)
heavy: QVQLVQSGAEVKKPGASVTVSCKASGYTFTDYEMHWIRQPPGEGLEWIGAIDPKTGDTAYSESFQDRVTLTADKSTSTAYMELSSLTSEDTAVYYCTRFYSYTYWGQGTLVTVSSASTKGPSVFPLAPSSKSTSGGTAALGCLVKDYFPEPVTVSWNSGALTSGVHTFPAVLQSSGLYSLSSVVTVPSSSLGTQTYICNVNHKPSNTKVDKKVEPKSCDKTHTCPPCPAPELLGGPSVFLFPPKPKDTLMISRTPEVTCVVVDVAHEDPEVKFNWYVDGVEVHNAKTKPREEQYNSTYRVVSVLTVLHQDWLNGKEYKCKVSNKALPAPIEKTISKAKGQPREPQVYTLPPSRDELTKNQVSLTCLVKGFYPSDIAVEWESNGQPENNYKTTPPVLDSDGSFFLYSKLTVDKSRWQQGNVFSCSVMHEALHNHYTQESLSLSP
light: DIVMTQSPLSLPVTPGEPASISCQASESLVHSNRNTYLHWYLQKPGQSPQLLIYKVSNRFSGVPDRFSGSGSGTDFTLKISRVEAEDVGVYYCSQNTHVPPTFGQGTKVEIERTVAAPSVFIFPPSDEQLKSGTASVVCLLNNFYPREAKVQWKVDNALQSGNSQESVTEQDSKDSTYSLSSTLTLSKADYEKHKVYACEVTHQGLSSPVTKSFNRGEC
B9: GpH7-B3 variant S267H/GpL16-k0 (antibody, human IgG1, kappa)
heavy: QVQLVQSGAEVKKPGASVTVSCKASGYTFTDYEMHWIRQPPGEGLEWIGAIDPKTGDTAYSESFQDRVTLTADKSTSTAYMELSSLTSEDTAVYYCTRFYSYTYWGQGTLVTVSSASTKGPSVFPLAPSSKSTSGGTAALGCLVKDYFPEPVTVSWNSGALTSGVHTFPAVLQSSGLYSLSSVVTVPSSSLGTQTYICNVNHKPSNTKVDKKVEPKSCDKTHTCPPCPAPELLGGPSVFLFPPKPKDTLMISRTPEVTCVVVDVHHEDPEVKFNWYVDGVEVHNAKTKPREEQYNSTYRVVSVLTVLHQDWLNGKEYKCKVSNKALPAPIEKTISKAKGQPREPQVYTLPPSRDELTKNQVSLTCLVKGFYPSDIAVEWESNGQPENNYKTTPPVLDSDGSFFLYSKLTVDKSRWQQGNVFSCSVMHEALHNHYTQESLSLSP
light: B8 light
B10: GpH7-B3 variant S298L/GpL16-k0 (antibody, human IgG1, kappa)
heavy: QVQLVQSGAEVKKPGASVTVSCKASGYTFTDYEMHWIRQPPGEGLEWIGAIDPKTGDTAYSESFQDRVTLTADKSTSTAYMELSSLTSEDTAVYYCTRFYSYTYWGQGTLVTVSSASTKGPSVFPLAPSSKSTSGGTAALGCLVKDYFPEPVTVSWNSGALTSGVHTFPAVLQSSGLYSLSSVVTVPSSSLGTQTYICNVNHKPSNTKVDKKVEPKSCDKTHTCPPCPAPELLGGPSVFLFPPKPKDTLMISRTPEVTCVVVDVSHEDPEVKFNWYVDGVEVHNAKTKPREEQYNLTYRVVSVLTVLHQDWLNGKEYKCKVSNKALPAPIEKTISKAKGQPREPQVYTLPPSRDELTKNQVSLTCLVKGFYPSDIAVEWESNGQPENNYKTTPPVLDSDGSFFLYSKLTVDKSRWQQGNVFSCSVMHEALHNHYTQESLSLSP
light: B8 light
B11: GpH7-B3 variant S267L/GpL16-k0 (antibody, human IgG1, kappa)
heavy: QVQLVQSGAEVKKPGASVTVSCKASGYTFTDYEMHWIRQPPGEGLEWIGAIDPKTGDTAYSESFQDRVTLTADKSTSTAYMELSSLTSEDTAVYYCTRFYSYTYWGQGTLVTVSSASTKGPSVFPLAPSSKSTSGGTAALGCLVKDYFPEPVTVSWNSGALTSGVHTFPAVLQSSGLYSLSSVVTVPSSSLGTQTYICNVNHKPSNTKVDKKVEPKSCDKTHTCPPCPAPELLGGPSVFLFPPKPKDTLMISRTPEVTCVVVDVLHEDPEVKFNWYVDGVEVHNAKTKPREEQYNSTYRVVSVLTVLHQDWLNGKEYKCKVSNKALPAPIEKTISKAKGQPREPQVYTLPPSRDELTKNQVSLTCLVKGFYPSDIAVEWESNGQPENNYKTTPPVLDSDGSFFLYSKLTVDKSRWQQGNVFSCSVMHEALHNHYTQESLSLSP
light: B8 light

Molecular target: T1, cynomolgus monkey FcγRIIa1 …
Experiment: SPR (Biacore), antibody captured, FcgR analyte
Protocol: (§1) The kinetic analysis of interactions between these antibodies and FcγR was carried out using BIACORE® T200 or BIACORE® 4000 (GE Healthcare). HBS-EP+ (GE Healthcare) was used as the running buffer, and the measurement temperature was set to 25° C. A chip produced by immobilizing Protein A. Protein A/G or mouse anti-human IgG kappa light chain (BD Biosciences) onto a Series S Sensor Chip CM4 or CM5 (GE Healthcare) by the amine-coupling method was used. […] After the measurement, the antibody captured on the chip was washed off by allowing reaction with 10 mM glycine-HCl, pH1.5 and 25 mM NaOH so that the chip was regenerated and used repeatedly. The sensorgrams obtained as measurement results were analyzed by the 1:1 Langmuir binding model using the BIACORE® Evaluation Software to calculate the binding rate constant ka (L/mol/s) and dissociation rate constant kd (l/s), and the dissociation constant KD (mol/L) was calculated from these values. […] Regarding such interactions, KD values were calculated using the following 1:1 binding model described in BIACORE® T100 Software Handbook BR1006-48 Edition AE.
(§2) The behavior of interacting molecules according to the 1:1 binding model on BIACORE® can be described by Equation 1: Req=C·R max/(KD+C)+RI, wherein, Req is a plot of steady-state binding levels to analyte concentration. C is concentration, RI is bulk refractive index contribution in the sample, and Rmax is analyte binding capacity of the surface. When this equation is rearranged, KD can be expressed as Equation 2: KD=C·Rmax/(Req−RI)−C. KD can be calculated by substituting the values of Rmax, RI, and C into Equation 1 or Equation 2. From the current measurement conditions, RI=0, C=2 μmol/L can be used.

Kd [nM]	Binder
440	B1
14000	B2
900	B3
1300	B4
860	B5
1700	B6
19000	B7

Molecular target: T2, cynomolgus monkey FcγRIIa2 …
Experiment: SPR (Biacore), antibody captured, FcgR analyte
Protocol: as §1, §2

Kd [nM]	Binder
350	B1
1400	B2
1100	B3
1400	B4
640	B5
1500	B6
2000	B7

Molecular target: T3, cynomolgus monkey FcγRIIa3 …
Experiment: SPR (Biacore), antibody captured, FcgR analyte
Protocol: as §1, §2

Kd [nM]	Binder
1400	B1
39000	B2
30000	B3
5200	B4
22000	B5
5000	B6
12000	B7

Molecular target: T4, cynomolgus monkey FcγRIIb extracellular …
Experiment: SPR (Biacore), antibody captured, FcgR analyte
Protocol: as §1, §2

Kd [nM]	Binder
240	B1
430	B2
250	B3
810	B4
460	B5
1100	B6
1100	B7

Molecular target: T5, cynomolgus monkey FcγRIIIaS …
Experiment: SPR (Biacore), antibody captured, FcgR analyte
Protocol: as §1, §2

Kd [nM]	Binder
2700	B1
5700	B2
6000	B3
3500	B4
4000	B5
4400	B6
4100	B7

molecular target: T6, human FcγRIIaH extracellular domain, …; experiment: SPR (Biacore), antibody captured, FcgR analyte
Protocol: as §1, §2

Kd [nM]	Binder
580	B1
910	B2
470	B3
1300	B4
12000	B5
1700	B6
11000	B7

Molecular target: T7, human FcγRIIaR extracellular domain, …
Experiment: SPR (Biacore), antibody captured, FcgR analyte
Protocol: as §1, §2

Kd [nM]	Binder
800	B1
1900	B2
1300	B3
2800	B4
1200	B5
27000	B6
2800	B7

molecular target: T8, human FcγRIIb extracellular domain, …; experiment: SPR (Biacore), antibody captured, FcgR analyte
Protocol: as §1, §2

Kd [nM]	Binder
420	B1
1100	B2
560	B3
1300	B4
710	B5
1400	B6
1900	B7

molecular target: T12, human FcγRIIIaV extracellular domain, C-terminal His-tag (human, UniProt P08637 17-208); experiment: SPR (Biacore), antibody captured, FcgR analyte
T12 construct: also called human FcgRIIIaV; FcgRIIIaV
Protocol: as §1, §2

T12 sequence (P08637 17-208 F176V): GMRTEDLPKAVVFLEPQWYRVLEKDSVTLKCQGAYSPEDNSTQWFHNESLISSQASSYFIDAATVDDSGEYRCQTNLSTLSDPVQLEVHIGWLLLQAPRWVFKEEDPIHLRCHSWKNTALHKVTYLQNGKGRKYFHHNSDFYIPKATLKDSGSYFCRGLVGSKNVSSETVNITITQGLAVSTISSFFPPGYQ

Kd [nM]	Binder
8900	B1
24000	B2
15000	B3
13000	B4
9400	B5
15000	B6
15000	B7

molecular target: T9, human FcγRIIaH extracellular domain, …; experiment: SPR 25C; FcgR bound per captured antibody, relative to parent B3

Binding to human FcgRs (parent B3 = 100)	Binder
176	B8
27	B9
99	B10
63	B11

Molecular target: T10, human FcγRIIaR extracellular domain, …
Experiment: as above

Binding to human FcgRs (parent B3 = 100)	Binder
125	B8
3	B9
71	B10
3	B11

molecular target: T11, human FcγRIIb extracellular domain, …; experiment: as above

Binding to human FcgRs (parent B3 = 100)	Binder
283	B8
42	B9
114	B10
112	B11

From patent US20200317768A1 (published 2020)
